According to patent US20230287087A1:

Biological target: Spike protein of patient-derived SARS-CoV-2 (D614G) (SARS-CoV-2) (UniProt P0DTC2)
Test: cell-based or functional assay

Row | Substance | neutralization by the trimer against the monomer | partial neutralization
1 | VHH-72 ColXVIII trimer | 10000 fold | 
2 | VHH-72 monomer |  | 170 nM
